Patent publication US20150037340A1 (PEIRRE FABRE MEDICAMENT, published 2015)

Key:
[1] = molecular target: human protein Axl (cellular form on the cell surface) (human) (UniProt P30530); experiment: cell-based or functional assay
[2] = molecular target: human protein Axl (cellular form on the cell surface) (human) (UniProt P30530); experiment: flow cytometry, 9G4 labelling of untreated (No Ab) SN12C cells
[3] = molecular target: human protein Axl (cellular form on the cell surface) (human) (UniProt P30530); experiment: flow cytometry, 9G4 labelling of SN12C cells treated 24 h with 9G4
[4] = molecular target: human protein Axl (cellular form on the cell surface) (human) (UniProt P30530); experiment: Qifikit quantitative flow cytometry on PC3 cells
[5] = molecular target: human protein Axl (cellular form on the cell surface) (human) (UniProt P30530); experiment: Qifikit quantitative flow cytometry on A172 cells
[6] = molecular target: human protein Axl (cellular form on the cell surface) (human) (UniProt P30530); experiment: Qifikit quantitative flow cytometry on A431 cells
[7] = molecular target: human protein Axl (cellular form on the cell surface) (human) (UniProt P30530); experiment: Qifikit quantitative flow cytometry on MCF7 cells
[8] = molecular target: human protein Axl (cellular form on the cell surface) (human) (UniProt P30530); experiment: Qifikit quantitative flow cytometry on Panc1 cells
[9] = molecular target: human protein Axl (cellular form on the cell surface) (human) (UniProt P30530); experiment: Qifikit quantitative flow cytometry on SN12C cells
[10] = molecular target: human protein Axl (cellular form on the cell surface) (human) (UniProt P30530); experiment: Qifikit quantitative flow cytometry on Calu-1 cells
[11] = molecular target: human protein Axl (cellular form on the cell surface) (human) (UniProt P30530); experiment: Qifikit quantitative flow cytometry on DU-145 cells
[12] = molecular target: human protein Axl (cellular form on the cell surface) (human) (UniProt P30530); experiment: Qifikit quantitative flow cytometry on NCI-H125 cells
[13] = molecular target: human protein Axl (cellular form on the cell surface) (human) (UniProt P30530); experiment: Qifikit quantitative flow cytometry on NCI-H226 cells
[14] = molecular target: human protein Axl (cellular form on the cell surface) (human) (UniProt P30530); experiment: Qifikit quantitative flow cytometry on MDA-MB-231 cells
[15] = molecular target: human protein Axl (cellular form on the cell surface) (human) (UniProt P30530); experiment: Qifikit quantitative flow cytometry on MDA-MB-435S cells
[16] = molecular target: human protein Axl (cellular form on the cell surface) (human) (UniProt P30530); experiment: flow cytometry, MAB154 labelling of untreated (No Ab) SN12C cells
[17] = molecular target: T1, human protein Axl (cellular form on the cell surface) (human, UniProt P30530 26-894); experiment: flow cytometry on SN12C cells, anti-human IgG Alexa488; table under the graph, unit from the axis Log [M]
T1 construct: also called Axl receptor; membrane Axl receptor
T1 sequence: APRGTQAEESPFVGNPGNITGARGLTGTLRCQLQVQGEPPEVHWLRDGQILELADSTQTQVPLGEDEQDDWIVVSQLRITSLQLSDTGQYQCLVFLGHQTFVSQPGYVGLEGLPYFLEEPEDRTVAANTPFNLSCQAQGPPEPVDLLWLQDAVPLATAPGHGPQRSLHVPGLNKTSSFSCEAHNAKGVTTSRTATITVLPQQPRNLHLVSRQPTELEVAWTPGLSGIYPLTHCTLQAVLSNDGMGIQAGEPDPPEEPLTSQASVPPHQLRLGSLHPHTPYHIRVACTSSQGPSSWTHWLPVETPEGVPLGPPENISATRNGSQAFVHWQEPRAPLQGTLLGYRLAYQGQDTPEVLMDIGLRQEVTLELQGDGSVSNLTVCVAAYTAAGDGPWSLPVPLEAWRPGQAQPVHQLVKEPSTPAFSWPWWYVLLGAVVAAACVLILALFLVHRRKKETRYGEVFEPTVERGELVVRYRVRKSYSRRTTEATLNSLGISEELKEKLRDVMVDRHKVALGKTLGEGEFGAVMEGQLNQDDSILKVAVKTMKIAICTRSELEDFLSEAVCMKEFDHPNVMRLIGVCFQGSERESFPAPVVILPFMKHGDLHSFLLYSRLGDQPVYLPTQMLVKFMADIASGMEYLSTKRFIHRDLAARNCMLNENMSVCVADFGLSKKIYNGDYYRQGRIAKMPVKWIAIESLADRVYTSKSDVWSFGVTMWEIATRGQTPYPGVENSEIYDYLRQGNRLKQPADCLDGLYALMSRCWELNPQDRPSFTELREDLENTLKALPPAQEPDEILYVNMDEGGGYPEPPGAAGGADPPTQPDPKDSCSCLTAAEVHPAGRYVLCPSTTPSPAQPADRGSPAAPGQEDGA
Method: Cells were detached using trypsin and cell concentration was adjusted at 1×10⁶ cells/ml in FACS buffer. A volume of 100 μL of cell suspension was incubated with increasing concentrations of either isotype controls or anti-Axl antibodies for 20 min. at 4° C. Cells were then washed three times with FACS buffer and incubated for 20 min. more using either anti-mouse IgG Alexa488 secondary antibody or anti-human IgG Alexa488 secondary antibody at 4° C. in the dark. Cells were washed three times with FACS buffer and resuspended with 100 μl of FACS buffer before adding propidium iodide.

For “9G4 murine IgG1 isotype control antibody”, the % remaining Axl, SN12C cells [1] was 117%, the Δ (MFI No Ab 24 h - MFI Ab 24 h), SN12C cells [1] was -2 MFI and the MFI at T24 h [2] was 11 MFI. For the same molecule, the MFI at T24 h [3] was 13 MFI.

“MAB154 commercial anti-Axl antibody (R and D Systems, ref MAB154)” showed an ABC (Qifikit) [4] of 8420 ABC, an ABC (Qifikit) [5] of 52400 ABC and an ABC (Qifikit) [6] of 3950 ABC. The ABC (Qifikit) [7] was 71 ABC, the ABC (Qifikit) [8] was 36800 ABC and the ABC (Qifikit) [9] was over 100000 ABC. For the same molecule, the antigen binding capacity (ABC) [9] was over 100000 ABC, the ABC (Qifikit) [10] was over 100000 ABC and the ABC (Qifikit) [11] was 55300 ABC. It also gave an ABC (Qifikit) [12] of 5540 ABC, an ABC (Qifikit) [13] of 32100 ABC and an ABC (Qifikit) [14] of 61200 ABC. The ABC (Qifikit) [15] was 17800 ABC and the MFI at T24 h [16] was 950 MFI.

B1: c1613F12 (chimeric 1613F12) (antibody, V domains shown)
VH: EVHLQQSGAELVKPGASVKLSCTASGFNIRDTYIHWVKQRPEQGLEWIGRLDPANGHTKYGPNFQGRATMTSDTSSNTAYLQLSSLTSEDTAVYYCARGAYYYGSSGLFYFDYWGQGTTLSVSS
VL: DVQITQSPSYLATSPGETITINCRASKSISKYLAWYQEKPGKTNKLLIYSGSTLQSGVPSRFSGSGSGTDFTLTISSLEPEDFAMYFCQQHHEYPLTFGAGTELELK
notes: Murine variable domains with human constant regions; also called chimeric form of the 1613F12
B1 was tested, and the EC50 [17] was 1.81 nM.
